Test results as given in patent US20160304570A1.
Non-standard residues stand in square brackets, D forms with d. Groups on a side chain read outwards from the residue. Primed or numbered codes have the meaning given here. No end group written: not given here. *: point of attachment. X2 = ((2-hydroxyethyl)thio)acetamide, O=C(CSCCO)*; PEG11′ = not defined here; 4‑Pen = not defined here; Pra = C#CC[C@H](N)C(=O)O; Nva = CCC[C@H](N)C(=O)O; Abu = CC[C@H](N)C(=O)O; Atz = not defined here

Key:
Test in all cases: cell-based or functional assay
[1] = target: human voltage-gated sodium channel Nav1.3 (human) (UniProt Q9NY46)
[2] = target: human Nav1.5 voltage-gated sodium channel (human) (UniProt Q14524)
[3] = target: human Nav1.3 voltage-gated sodium channel (human) (UniProt Q9NY46)
[4] = target: human Nav1.7 voltage-gated sodium channel (human) (UniProt Q15858)
[5] = target: human Nav1.4 voltage-gated sodium channel (human) (UniProt P35499)
[6] = target: human voltage-gated sodium channel Nav1.7 (human) (UniProt Q15858)
[7] = target: human voltage-gated sodium channel Nav1.5 (human) (UniProt Q14524)
[8] = target: human voltage-gated sodium channel Nav1.4 (human) (UniProt P35499)

Sequence of human Nav1.5 voltage-gated sodium channel (human) (Q14524 whole entry): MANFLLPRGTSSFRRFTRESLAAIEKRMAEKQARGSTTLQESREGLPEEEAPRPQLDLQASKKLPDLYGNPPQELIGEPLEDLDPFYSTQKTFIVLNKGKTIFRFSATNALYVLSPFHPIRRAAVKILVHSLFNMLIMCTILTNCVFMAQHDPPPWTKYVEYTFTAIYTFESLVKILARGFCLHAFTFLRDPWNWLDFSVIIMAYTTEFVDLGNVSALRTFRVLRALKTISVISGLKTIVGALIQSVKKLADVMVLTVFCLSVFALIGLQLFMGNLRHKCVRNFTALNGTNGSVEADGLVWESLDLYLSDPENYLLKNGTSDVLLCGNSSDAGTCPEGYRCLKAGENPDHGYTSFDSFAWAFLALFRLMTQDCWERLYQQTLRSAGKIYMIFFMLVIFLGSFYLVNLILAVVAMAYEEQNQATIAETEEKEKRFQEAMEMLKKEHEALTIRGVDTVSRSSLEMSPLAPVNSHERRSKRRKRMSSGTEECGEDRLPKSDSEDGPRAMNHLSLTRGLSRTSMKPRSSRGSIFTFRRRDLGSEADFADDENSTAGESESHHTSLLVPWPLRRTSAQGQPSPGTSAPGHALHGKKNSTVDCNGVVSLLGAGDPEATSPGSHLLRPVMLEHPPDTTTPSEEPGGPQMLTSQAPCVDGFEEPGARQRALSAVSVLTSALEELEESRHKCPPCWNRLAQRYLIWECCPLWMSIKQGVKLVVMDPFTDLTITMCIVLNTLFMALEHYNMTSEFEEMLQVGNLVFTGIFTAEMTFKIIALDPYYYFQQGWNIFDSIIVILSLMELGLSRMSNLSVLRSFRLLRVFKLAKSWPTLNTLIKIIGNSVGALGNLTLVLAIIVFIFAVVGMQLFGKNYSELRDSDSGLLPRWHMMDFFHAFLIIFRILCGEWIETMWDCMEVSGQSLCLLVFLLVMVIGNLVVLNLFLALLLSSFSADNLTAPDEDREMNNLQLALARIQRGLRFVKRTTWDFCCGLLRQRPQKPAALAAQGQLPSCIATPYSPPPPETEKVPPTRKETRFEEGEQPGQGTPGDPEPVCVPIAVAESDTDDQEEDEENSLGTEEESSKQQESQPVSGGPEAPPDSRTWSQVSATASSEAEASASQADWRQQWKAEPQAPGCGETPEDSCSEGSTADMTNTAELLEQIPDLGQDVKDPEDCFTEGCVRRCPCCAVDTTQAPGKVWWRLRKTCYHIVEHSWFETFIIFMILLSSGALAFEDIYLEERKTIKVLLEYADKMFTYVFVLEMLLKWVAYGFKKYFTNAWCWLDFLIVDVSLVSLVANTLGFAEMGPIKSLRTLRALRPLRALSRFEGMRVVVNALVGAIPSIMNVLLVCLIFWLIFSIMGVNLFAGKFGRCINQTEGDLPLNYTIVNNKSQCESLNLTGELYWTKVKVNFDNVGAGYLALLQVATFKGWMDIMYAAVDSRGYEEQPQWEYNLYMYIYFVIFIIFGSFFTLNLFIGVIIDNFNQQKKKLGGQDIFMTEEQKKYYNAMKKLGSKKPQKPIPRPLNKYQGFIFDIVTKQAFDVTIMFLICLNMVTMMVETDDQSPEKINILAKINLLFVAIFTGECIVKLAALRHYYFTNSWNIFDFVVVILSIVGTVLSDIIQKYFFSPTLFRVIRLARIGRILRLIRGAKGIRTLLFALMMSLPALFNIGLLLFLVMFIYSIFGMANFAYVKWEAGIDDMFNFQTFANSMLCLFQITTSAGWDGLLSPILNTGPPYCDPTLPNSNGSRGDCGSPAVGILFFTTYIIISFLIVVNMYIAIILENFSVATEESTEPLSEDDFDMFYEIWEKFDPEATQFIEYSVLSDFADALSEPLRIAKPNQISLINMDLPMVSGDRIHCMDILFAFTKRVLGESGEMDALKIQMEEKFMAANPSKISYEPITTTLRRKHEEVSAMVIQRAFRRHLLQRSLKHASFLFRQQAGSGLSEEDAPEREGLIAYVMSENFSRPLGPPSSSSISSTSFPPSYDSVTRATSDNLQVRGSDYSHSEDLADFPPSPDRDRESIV
Sequence of human voltage-gated sodium channel Nav1.5 (human) (Q14524 whole entry): as above

**Q.** With “[Ala5;Phe6;Ile13;Arg28]GpTx-1(1-34)-FreeAcid (peptide)” as the molecule, how does the IWQ Use Nav1.3 IC50 [1] read?
**A.** 3 µM

**Q.** Which IWQ Use Nav1.5 IC50 (IonWorks Quattro electrophysiology) [2] does the source give for “[Ala5;Phe6;K(Ac-Pra)13;Arg28]GpTx-1(1-34) (peptide)” here?
**A.** 24.6 µM

**Q.** And the IWQ Use Nav1.3 IC50 (IonWorks Quattro electrophysiology) [3]?
**A.** 0.25 µM

**Q.** What about the IWQ Use Nav1.7 IC50 (IonWorks Quattro electrophysiology) [4] of the same molecule?
**A.** 0.78 µM

**Q.** What about the IWQ Use Nav1.4 IC50 (IonWorks Quattro electrophysiology) [5] of the same molecule?
**A.** 18 µM

**Q.** “[Ala5;Phe6;Leu13;Arg28]GpTx-1(1-34)-FreeAcid (peptide)” was tested. Which IWQ Use Nav1.7 IC50 [6] did it give?
**A.** 4.5 µM

**Q.** And the IWQ Use Nav1.3 IC50 [1]?
**A.** 4.5 µM

**Q.** What does the source list for “[Ala5;Phe6;Lys13;Arg28]GpTx-1(1-34)-FreeAcid (peptide)”?
**A.** IWQ Use Nav1.5 IC50 [7]: 2.8 µM; IWQ Use Nav1.7 IC50 [6]: 3.6 µM; IWQ Use Nav1.3 IC50 [1]: 0.3 µM

**Q.** For “[Ala5;Phe6;Met13;Arg28]GpTx-1(1-34)-FreeAcid (peptide)”, which IWQ Use Nav1.7 IC50 [6] is on record?
**A.** 4.7 µM

**Q.** And the IWQ Use Nav1.3 IC50 [1]?
**A.** 0.8 µM

**Q.** Which results are given for “[Ala5;Phe6;Pra12;Leu26;Arg28]GpTx-1(1-34) (peptide)”?
**A.** IWQ Use Nav1.5 IC50 (IonWorks Quattro electrophysiology) [2]: 36.5 µM; IWQ Use Nav1.3 IC50 (IonWorks Quattro electrophysiology) [3]: 0.12 µM; IWQ Use Nav1.7 IC50 (IonWorks Quattro electrophysiology) [4]: 0.13 µM

**Q.** How did the IWQ Use Nav1.7 IC50 [6] turn out when “[Ala5;Phe6;Pro13;Arg28]GpTx-1(1-34)-FreeAcid (peptide)” was run?
**A.** 2.9 µM

**Q.** What about the IWQ Use Nav1.3 IC50 [1] of the same molecule?
**A.** 2.9 µM

**Q.** For “[Ala5;Phe6;Ser13;Arg28]GpTx-1(1-34)-FreeAcid (peptide)”, which IWQ Use Nav1.3 IC50 [1] is on record?
**A.** 1.1 µM

**Q.** Which IWQ Use Nav1.3 IC50 [1] does the source give for “[Ala5;Phe6;Thr13;Arg28]GpTx-1(1-34)-FreeAcid (peptide)” here?
**A.** 1.3 µM

**Q.** How did the IWQ Use Nav1.3 IC50 [1] turn out when “[Ala5;Phe6;Val13;Arg28]GpTx-1(1-34)-FreeAcid (peptide)” was run?
**A.** 1.7 µM

**Q.** Which IWQ Use Nav1.5 IC50 (IonWorks Quattro electrophysiology) [2] does the source give for “[Nva5;Leu6;K(4-Pen)13;Arg28]GpTx-1(1-34) (peptide)” here?
**A.** 37.5 µM

**Q.** What about the IWQ Use Nav1.3 IC50 (IonWorks Quattro electrophysiology) [3] of the same molecule?
**A.** 0.27 µM

**Q.** What about the IWQ Use Nav1.7 IC50 (IonWorks Quattro electrophysiology) [4] of the same molecule?
**A.** 0.31 µM

B1: [Ala5;Leu6;His13;Arg28]GpTx-1(1-34)-FreeAcid (peptide)
peptide: DCLGALRKCIPDHDKCCRPNLVCSRTHRWCKYVF-OH
modifications: ends and bridges not checked
**Q.** B1 was tested. Which IWQ Use Nav1.5 [7] did it give?
**A.** > 5 µM

**Q.** And the IWQ Use Nav1.7 [6]?
**A.** > 5 µM

**Q.** And the IWQ Use Nav1.4 [8]?
**A.** > 5 µM

**Q.** And the IWQ Use Nav1.3 [1]?
**A.** 3.9 µM

B2: [2-Abu2,17;Val5;Leu6;Glu28]GpTx-1(1-34) (peptide)
peptide: D[Abu]LGVLRKCIPDNDKC[Abu]RPNLVCSRTHEWCKYVF
modifications: ends and bridges not checked
**Q.** What does the source list for B2?
**A.** IWQ Use Nav1.5 (µM) (IC50, IonWorks Quattro population patch clamp) [7]: 33 µM; IWQ Use Nav1.7 (µM) (IC50, IonWorks Quattro population patch clamp) [6]: > 5 µM; IWQ Use Nav1.4 (µM) (IC50, IonWorks Quattro population patch clamp) [8]: > 50 µM; IWQ Use Nav1.3 (µM) (IC50, IonWorks Quattro population patch clamp) [1]: > 5 µM

B3: [2-Abu2,5,17;Leu6;Glu28]GpTx-1(1-34) (peptide)
peptide: D[Abu]LG[Abu]LRKCIPDNDKC[Abu]RPNLVCSRTHEWCKYVF
modifications: ends and bridges not checked
**Q.** How did the IWQ Use Nav1.5 (µM) (IC50, IonWorks Quattro population patch clamp) [7] turn out when B3 was run?
**A.** > 50 µM

**Q.** And the IWQ Use Nav1.7 (µM) (IC50, IonWorks Quattro population patch clamp) [6]?
**A.** 4.3 µM

**Q.** What about the IWQ Use Nav1.4 (µM) (IC50, IonWorks Quattro population patch clamp) [8] of the same molecule?
**A.** > 50 µM

**Q.** What about the IWQ Use Nav1.3 (µM) (IC50, IonWorks Quattro population patch clamp) [1] of the same molecule?
**A.** > 5 µM

B4: [2-Abu5;Leu6;K(4-Pen)13;Glu28]GpTx-1(1-34) (peptide)
peptide: DCLG[Abu]LRKCIPDK(4‑Pen)DKCCRPNLVCSRTHEWCKYVF
modifications: ends and bridges not checked
**Q.** What does the source list for B4?
**A.** IWQ Use Nav1.5 IC50 (IonWorks Quattro electrophysiology) [2]: > 5 µM; IWQ Use Nav1.3 IC50 (IonWorks Quattro electrophysiology) [3]: 4.1 µM; IWQ Use Nav1.7 IC50 (IonWorks Quattro electrophysiology) [4]: 1.8 µM; IWQ Use Nav1.4 IC50 (IonWorks Quattro electrophysiology) [5]: > 5 µM

B5: [2-Abu2,17;Ala5;Leu6;Glu28]GpTx-1(1-34) (peptide)
peptide: D[Abu]LGALRKCIPDNDKC[Abu]RPNLVCSRTHEWCKYVF
modifications: ends and bridges not checked
**Q.** Which results are given for B5?
**A.** IWQ Use Nav1.5 (µM) (IC50, IonWorks Quattro population patch clamp) [7]: > 50 µM; IWQ Use Nav1.7 (µM) (IC50, IonWorks Quattro population patch clamp) [6]: 4.3 µM; IWQ Use Nav1.4 (µM) (IC50, IonWorks Quattro population patch clamp) [8]: > 50 µM; IWQ Use Nav1.3 (µM) (IC50, IonWorks Quattro population patch clamp) [1]: > 5 µM

B6: [Ala5;Leu6,26;Glu10;Atz(PEG11-((2-hydroxyethyl)thio)acetamide)13;Arg28]GpTx-1(1-34) (peptide)
peptide: DCLGALRKCEPD[Atz]([PEG11′-X2])DKCCRPNLVCSRLHRWCKYVF
modifications: ends and bridges not checked; also: printed as [Ala5;Leu6,26;Glu10;Atz(PEG11-((2-hydroxyethyl)thio)acetamide)13;Arg28]GpTx-1(1-34)
**Q.** Which results are given for B6?
**A.** Nav1.5 Use IC50 (PatchXpress electrophysiology, inhibition of sodium current) [7]: > 10 µM; Nav1.7 Use IC50 (PatchXpress electrophysiology, inhibition of sodium current) [6]: 0.054 µM; Nav1.4 Use IC50 (PatchXpress electrophysiology, inhibition of sodium current) [8]: > 10 µM

B7: [Ala5;Leu6,26;Glu10;Pra13;Arg28]GpTx-1(1-34) (peptide)
peptide: DCLGALRKCEPD[Pra]DKCCRPNLVCSRLHRWCKYVF
modifications: ends and bridges not checked
**Q.** For B7, which IWQ Use Nav1.5 IC50 (IonWorks Quattro electrophysiology) [2] is on record?
**A.** > 50 µM

**Q.** What about the Nav1.5 Use IC50 (µM), electrophysiology by PatchXpress [7] of the same molecule?
**A.** > 10 µM

**Q.** What about the Nav1.7 Use IC50 (µM), electrophysiology by PatchXpress [6] of the same molecule?
**A.** 0.013 µM

**Q.** What about the Nav1.4 Use IC50 (µM), electrophysiology by PatchXpress [8] of the same molecule?
**A.** > 10 µM

**Q.** And the IWQ Use Nav1.3 IC50 (IonWorks Quattro electrophysiology) [3]?
**A.** 1.4 µM

**Q.** And the IWQ Use Nav1.7 IC50 (IonWorks Quattro electrophysiology) [4]?
**A.** 0.7 µM

**Q.** What about the IWQ Use Nav1.4 IC50 (IonWorks Quattro electrophysiology) [5] of the same molecule?
**A.** > 50 µM

B8: [2-Abu2,17;Nva5;Leu6;Glu28]GpTx-1(1-34) (peptide)
peptide: D[Abu]LG[Nva]LRKCIPDNDKC[Abu]RPNLVCSRTHEWCKYVF
modifications: ends and bridges not checked
**Q.** What does the source list for B8?
**A.** IWQ Use Nav1.5 (µM) (IC50, IonWorks Quattro population patch clamp) [7]: > 50 µM; IWQ Use Nav1.7 (µM) (IC50, IonWorks Quattro population patch clamp) [6]: > 5 µM; IWQ Use Nav1.4 (µM) (IC50, IonWorks Quattro population patch clamp) [8]: > 50 µM; IWQ Use Nav1.3 (µM) (IC50, IonWorks Quattro population patch clamp) [1]: > 5 µM
